In assay [1] the target is HLA-B*51:01. As to the kind of experiment: IEDB peptide-MHC binding, purified MHC/direct/fluorescence; filed as Kd, often an IC50 or EC50 that approximates it; ≥ and ≤ were set here for values at or beyond the usual limits of such assays.
Assay [2] has as its target HLA-B*40:01. Briefly: IEDB peptide-MHC binding, purified MHC/competitive/radioactivity; filed as Kd, often an IC50 or EC50 that approximates it; ≥ and ≤ were set here for values at or beyond the usual limits of such assays. Particulars: source organism: Dengue virus 2 Jamaica/1409/1983.
In assay [3] the target is HLA-A*30:01. The description is as above. Particulars: source organism: Dengue virus 2 Jamaica/1409/1983.
Assay [4] addresses HLA-A*02:11. Briefly: IEDB peptide-MHC binding, purified MHC/direct/fluorescence; filed as Kd, often an IC50 or EC50 that approximates it; ≥ and ≤ were set here for values at or beyond the usual limits of such assays. To be noted: source organism: Sudan ebolavirus.
Assay [5] has as its target HLA-A*02:03. The description is as above.
For assay [6], the target named is HLA-B*15:01. Described as above.
For assay [7], the target named is HLA-A*01:01. Described as above.
Assay [8] has as its target HLA-B*39:01. The assay is described as above.
Assay [9] deals with HLA-B*27:05. Described as above.
For assay [10], the target named is HLA-A*68:02. The assay is described as above.
The target in assay [11] is HLA-B*57:01. The assay is described as above.
Assay [12] has as its target HLA-B*18:01. The description is as above.
Assay [13] deals with HLA-A*31:01. The assay is described as above.
In assay [14] the target is HLA-B*40:01. The assay is described as above.
Assay [15] has as its target HLA-A*03:01. Described as above.
Assay [16] addresses HLA-B*44:02. The assay is described as above.
In assay [17] the target is HLA-A*02:01. The assay is described as above.
Assay [18] addresses HLA-A*69:01. Described as above.
In assay [19] the target is HLA-B*46:01. Described as above.
Assay [20] has as its target HLA-A*02:12. Described as above.
Assay [21] concerns the target HLA-A*24:03. The assay is described as above.
For assay [22], the target named is HLA-A*29:02. Described as above.
For assay [23], the target named is HLA-B*48:01. The assay is described as above.
The target in assay [24] is HLA-A*02:19. Described as above. To be noted: source organism: Sudan ebolavirus.
The target of assay [25] is HLA-B*58:01. Described as above.
Assay [26] has as its target HLA-B*51:01. Briefly: IEDB peptide-MHC binding, purified MHC/competitive/fluorescence; filed as Kd, often an IC50 or EC50 that approximates it; ≥ and ≤ were set here for values at or beyond the usual limits of such assays.
Assay [27] deals with HLA-A*26:01. The description is as above.
The target in assay [28] is HLA-B*27:03. Described as above.
The target in assay [29] is HLA-B*15:17. Described as above.
Assay [30] deals with HLA-B*15:01. Described as above. Particulars: source organism: Zaire ebolavirus.
Assay [31] addresses HLA-B*39:01. The assay is described as above. To be noted: source organism: Zaire ebolavirus.
The target in assay [32] is HLA-B*57:01. Described as above. Particulars: source organism: Zaire ebolavirus.
The target of assay [33] is HLA-B*18:01. Described as above. Particulars: source organism: Zaire ebolavirus.
Assay [34] has as its target HLA-A*69:01. Described as above. Particulars: source organism: Zaire ebolavirus.
Assay [35] addresses HLA-B*46:01. The description is as above. Particulars: source organism: Zaire ebolavirus.
Assay [36] deals with HLA-A*11:01. Briefly: IEDB peptide-MHC binding, purified MHC/direct/fluorescence; filed as Kd, often an IC50 or EC50 that approximates it; ≥ and ≤ were set here for values at or beyond the usual limits of such assays. Particulars: source organism: Yellow fever virus.
Assay [37] concerns the target HLA-B*07:02. The description is as above.
The mark [38] stands for this setting: source organism: Sudan ebolavirus.
Where [39] appears, read: source organism: Sudan virus - Boniface, Sudan,1976.
Setting [40] is: source organism: Zaire ebolavirus.
The mark [41] stands for this setting: source organism: Yellow fever virus.
The mark [42] stands for this setting: source organism: Reston ebolavirus - Reston.

Some results are limits rather than exact numbers.

What is called Kd is the concentration at which binding is half-saturated.

Take RERLSRMAI: the Kd was at least 20 µM in [1] (source organism: dengue virus type 2), 0.0296 µM in [2] and 0.828 µM in [3].
Turning to TMMRHRREL, the Kd in assay [4], in assay [5] (setting [38]), in [6] (setting [39]), in assay [7] (setting [39]), in assay [8] (setting [39]) and in [9] (setting [39]) was at least 20 µM throughout. The Kd in assay [10] (setting [38]), in assay [11] (setting [39]), in [12] (setting [39]), in assay [13] (setting [39]), in [14] (setting [39]) and in assay [15] (setting [39]) was at least 20 µM throughout. The Kd in assay [16] (setting [39]), in assay [17] (setting [39]), in [18] (setting [39]), in assay [19] (setting [39]), in [20] (setting [38]) and in assay [21] (setting [38]) was at least 20 µM in each case. The Kd in assay [22] (setting [39]), in assay [23] (setting [39]), in assay [24], in assay [25] (setting [39]), in [26] (setting [38]) and in assay [27] (setting [38]) was at least 20 µM in each case. Further, the Kd in assay [28] (setting [38]) and in [29] (setting [38]) was at least 20 µM in each case.
KLWTSISCA: the Kd in assay [10] (setting [40]) is at least 20 µM; in assay [15] (setting [40]), at least 20 µM; in assay [17] (source organism: Sudan ebolavirus - Maleo (1979)) it was 0.0082 µM; in [21] (setting [40]), at least 20 µM; in assay [22] (setting [40]) it was at least 20 µM; in [30], at least 20 µM. The dissociation constant Kd in assay [31], in [32], in [33], in [26] (setting [40]), in assay [27] (setting [40]) and in assay [34] was at least 20 µM each time. Also, the Kd in assay [35], in assay [28] (setting [40]) and in assay [29] (setting [40]) was at least 20 µM each time.
Consider TKDTNDNNL, for which the Kd in assay [36], in assay [6] (setting [41]), in [7] (setting [41]), in assay [9] (setting [41]), in assay [11] (setting [41]) and in assay [12] (setting [41]) was at least 20 µM each time. In addition, the Kd in [13] (setting [41]), in assay [14] (setting [41]), in [37] (setting [41]), in [15] (setting [41]), in assay [16] (setting [41]) and in assay [17] (setting [41]) was at least 20 µM each time. The Kd in assay [18] (setting [41]), in [19] (setting [41]), in [22] (setting [41]), in assay [23] (setting [41]) and in assay [25] (setting [41]) was at least 20 µM each time.
For SKLRALLTL, the Kd in assay [5] (setting [40]) is at least 20 µM; in [6] (setting [42]), at least 20 µM; in assay [7] (setting [42]), at least 20 µM; in [8] (setting [42]), 0.618 µM; in assay [10] (setting [40]) it was at least 20 µM; in [11] (setting [42]) it was at least 20 µM. Besides, the Kd in assay [12] (setting [42]), in assay [13] (setting [42]), in assay [14] (setting [42]), in [37] (setting [42]), in assay [15] (setting [42]) and in [16] (setting [42]) was at least 20 µM each time. The dissociation constant (Kd) in assay [17] (setting [42]), in assay [18] (setting [42]), in assay [19] (setting [42]), in [20] (setting [40]), in assay [21] (setting [40]) and in [22] (setting [42]) was at least 20 µM each time. Further, the Kd in [25] (setting [42]), in assay [26] (setting [40]), in assay [27] (setting [40]), in assay [28] (setting [40]) and in assay [29] (setting [40]) was at least 20 µM each time.
RVSSDQSAL came in with a Kd in assay [1] (source organism: Yellow fever virus 17D) of at least 20 µM.

The values are drawn from the Immune Epitope Database (IEDB).
